IntAct's records for PubMed 23393263

B1: Protein E6 (Bovine papillomavirus type 1), P06931 (parent)
chain: MDLKPFARTNPFSGLDCLWCREPLTEVDAFRCMVKDFHVVIREGCRYGACTICLENCLATERRLWQGVPVTGEEAELLHGKTLDRLCIRCCYCGGKLTKNEKHRHVLFNEPFCKTRANIIRGRCYDCCRHGSRSKYP
B2: Protein E6 (Human papillomavirus type 16), P03126 (parent)
chain: MHQKRTAMFQDPQERPRKLPQLCTELQTTIHDIILECVYCKQQLLRREVYDFAFRDLCIVYRDGNPYAVCDKCLKFYSKISEYRHYCYSLYGTTLEQQYNKPLCDLLIRCINCQKPLCPEEKQRHLDKKQRFHNIRGRWTGRCMSCCRSSRTRRETQL

What was measured:
paxi_human PXN, P49023 [1] = variants of: B1; conditions: with paxi_human PXN
paxi_human PXN, P49023 [2] = variants of: B1; conditions: with paxi_human PXN; remark: listed apart in the source
[3] = variants of: B2; conditions: with ube3a_human UBE3A
[4] = variants of: B2; conditions: with ube3a_human UBE3A; remark: listed apart in the source

Chain of paxi_human PXN, P49023 (P49023 whole entry): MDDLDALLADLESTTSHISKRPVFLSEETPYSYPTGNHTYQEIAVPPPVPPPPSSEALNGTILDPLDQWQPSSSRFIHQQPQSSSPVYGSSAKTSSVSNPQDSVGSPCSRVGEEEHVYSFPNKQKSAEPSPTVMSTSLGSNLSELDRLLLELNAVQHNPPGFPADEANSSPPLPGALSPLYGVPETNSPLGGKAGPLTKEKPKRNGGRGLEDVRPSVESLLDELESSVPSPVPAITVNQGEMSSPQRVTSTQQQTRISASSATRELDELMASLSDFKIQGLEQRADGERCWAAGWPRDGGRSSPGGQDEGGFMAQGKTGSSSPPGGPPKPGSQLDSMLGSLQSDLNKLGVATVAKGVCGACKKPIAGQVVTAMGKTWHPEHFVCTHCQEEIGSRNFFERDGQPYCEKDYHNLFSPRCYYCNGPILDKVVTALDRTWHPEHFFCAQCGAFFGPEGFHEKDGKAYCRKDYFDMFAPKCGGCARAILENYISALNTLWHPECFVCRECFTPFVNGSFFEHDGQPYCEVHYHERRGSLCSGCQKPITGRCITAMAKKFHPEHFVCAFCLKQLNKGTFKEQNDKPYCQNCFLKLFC

Row | Variant | effect of a mutation on the interaction (paxi_human PXN, P49023 [1]) | effect of a mutation on the interaction (paxi_human PXN, P49023 [2]) | effect of a mutation on the interaction [3] | effect of a mutation on the interaction [4]
1 | R89L | decreasing interaction strength | disrupting interaction strength |  | 
2 | R89A | decreasing interaction strength | disrupting interaction strength |  | 
3 | L58S | decreasing interaction strength | disrupting interaction strength |  | 
4 | F37S | decreasing interaction strength | disrupting interaction strength |  | 
5 | R116G | decreasing interaction strength | disrupting interaction strength |  | 
6 | R116D | decreasing interaction strength | disrupting interaction strength |  | 
7 | R121G | decreasing interaction strength | disrupting interaction strength |  | 
8 | R17A |  |  | decreasing interaction strength | 
9 | S78R |  |  | decreasing interaction strength | 
10 | L57A |  |  | disrupting interaction strength | 
11 | L57E |  |  |  | disrupting interaction strength
12 | R62A |  |  | decreasing interaction strength | 
13 | R109A |  |  | disrupting interaction strength | decreasing interaction strength
14 | R138A |  |  | disrupting interaction strength | decreasing interaction strength
